Measured values as given in the supplement of paper PMC10567573.

B1: TCAP (parent)
chain: YQRVLPLPIFTPAKMGATKEERED

Variants of: B1
Experiment: protein stability index of a GFP-peptide fusion (GPS, HEK-293T) (PSI 1-6); higher = more stable
Conditions: c terminus: a fixed tail appended
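Note: lentivirally expressed fusions sorted by FACS into six bins by GFP to DsRed ratio, PSI derived from sequencing read proportions per bin multiplied by bin number.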

Variant	protein stability index
YQRVLPLPIFTPAKMGATKEERES [D24S]	1.45
YQRVLPLPIFTPAKMGATKEEREE [D24E]	2.21
YQRVLPLPIFTPAKMGATKEEREK [D24K]	2.17
YQRVLPLPIFTPAKMGATKEEREV [D24V]	1.87
YQRVLPLPIFTPAKMGATKEERER [D24R]	1.55
YQRVLPLPIFTPAKMGATKEEREW [D24W]	2.26
YQRVLPLPIFTPAKMGATKEEREM [D24M]	1.86
YQRVLPLPIFTPAKMGATKEEREA [D24A]	1.82
YQRVLPLPIFTPAKMGATKEERQD [E23Q]	1.69
YQRVLPLPIFTPAKMGATKEERRD [E23R]	1.92
YQRVLPLPIFTPAKMGATKEERVD [E23V]	2.79
YQRVLPLPIFTPAKMGATKEERHD [E23H]	2.72
YQRVLPLPIFTPAKMGATKEERDD [E23D]	2.04
YQRVLPLPIFTPAKMGATKEERTD [E23T]	2.16
YQRVLPLPIFTPAKMGATKEERPD [E23P]	1.95
YQRVLPLPIFTPAKMGATKEERAD [E23A]	2.02
YQRVLPLPIFTPAKMGATKEERFD [E23F]	1.64
YQRVLPLPIFTPAKMGATKEERMD [E23M]	1.9
YQRVLPLPIFTPAKMGATKEERSD [E23S]	2
YQRVLPLPIFTPAKMGATKEERWD [E23W]	2.53
YQRVLPLPIFTPAKMGATKEERGD [E23G]	2
YQRVLPLPIFTPAKMGATKEERKD [E23K]	1.87
YQRVLPLPIFTPAKMGATKEERID [E23I]	2.3
YQRVLPLPIFTPAKMGATKEERLD [E23L]	2.22

Variant	protein stability index
YQRVLPLPIFTPAKMGATKEERND [E23N]	1.8
YQRVLPLPIFTPAKMGATKEERCD [E23C]	2.19
YQRVLPLPIFTPAKMGATKEERYD [E23Y]	1.93
YQRVLPLPIFTPAKMGANKEERED [T18N]	2.06
YQRVLPLPIFTPAKMGAYKEERED [T18Y]	1.7
YQRVLPLPIFTPAKMGAQKEERED [T18Q]	2.39
YQRVLPLPIFTPAKMGAPKEERED [T18P]	1.91
YQRVLPLPIFTPAKMGAVKEERED [T18V]	2.38
YQRVLPLPIFTPAKMGAKKEERED [T18K]	2.25
YQRVLPLPIFTPAKMGALKEERED [T18L]	2.56
YQRVLPLPIFTPAKMGASKEERED [T18S]	1.81
YQRVLPLPIFTPAKMGARKEERED [T18R]	2.4
YQRVLPLPIFTPAKMGAMKEERED [T18M]	1.52
YQRVLPLPIFTPAKMGATKEESED [R22S]	1.76
YQRVLPLPIFTPAKMGATKEETED [R22T]	1.86
YQRVLPLPIFTPAKMGATKEEMED [R22M]	1.9
YQRVLPLPIFTPAKMGATKEECED [R22C]	2.04
YQRVLPLPIFTPAKMGATKEEIED [R22I]	1.93
YQRVLPLPIFTPAKMGATKEEHED [R22H]	1.95
YQRVLPLPIFTPAKMGATKEEFED [R22F]	1.85
YQRVLPLPIFTPAKMGATKEEDED [R22D]	2.18
YQRVLPLPIFTPAKMGATKEENED [R22N]	2.51
YQRVLPLPIFTPAKMGATKEEEED [R22E]	2.34
YQRVLPLPIFTPAKMGATKEEVED [R22V]	2.2

Variant	protein stability index
YQRVLPLPIFTPAKMGATKEEGED [R22G]	2.47
YQRVLPLPIFTPAKMGATKEEYED [R22Y]	1.63
YQRVLPLPIFTPAKMGATKEEPED [R22P]	1.87
YQRVLPLPIFTPAKMGATKEEKED [R22K]	2.09
YQRVLPLPIFTPAKMGATKEEQED [R22Q]	1.67
YQRVLPLPIFTPAKMGATKEELED [R22L]	1.79
YQRVLPLPIFTPAKMGATKEEWED [R22W]	1.71
YQRVLPLPIFTPAKMGATKEEAED [R22A]	1.9
YQRVLPLPIFTPAKMGATDEERED [K19D]	2.03
YQRVLPLPIFTPAKMGATPEERED [K19P]	2.21
YQRVLPLPIFTPAKMGATREERED [K19R]	2.02
YQRVLPLPIFTPAKMGATMEERED [K19M]	2.5
YQRVLPLPIFTPAKMGATAEERED [K19A]	2.02
YQRVLPLPIFTPAKMGATWEERED [K19W]	1.81
YQRVLPLPIFTPAKMGATTEERED [K19T]	2.12
YQRVLPLPIFTPAKMGATHEERED [K19H]	1.8
YQRVLPLPIFTPAKMGATLEERED [K19L]	1.8
YQRVLPLPIFTPAKMGATNEERED [K19N]	2.1
YQRVLPLPIFTPAKMGATEEERED [K19E]	2.09
YQRVLPLPIFTPAKMGATGEERED [K19G]	2.42
YQRVLPLPIFTPAKMGATSEERED [K19S]	2.08
YQRVLPLPIFTPAKMGATYEERED [K19Y]	2.01
YQRVLPLPIFTPAKMGATCEERED [K19C]	1.78
YQRVLPLPIFTPAKMGATQEERED [K19Q]	1.91

Variant	protein stability index
YQRVLPLPIFTPAKMGATIEERED [K19I]	2.06
YQRVLPLPIFTPAKMGATFEERED [K19F]	1.93
YQRVLPLPIFTPAKMGATVEERED [K19V]	1.63
YQRVLPLPIFTPAKMGATKMERED [E20M]	2.4
YQRVLPLPIFTPAKMGATKNERED [E20N]	1.89
YQRVLPLPIFTPAKMGATKVERED [E20V]	1.65
YQRVLPLPIFTPAKMGATKTERED [E20T]	2.13
YQRVLPLPIFTPAKMGATKGERED [E20G]	2.23
YQRVLPLPIFTPAKMGATKHERED [E20H]	2.78
YQRVLPLPIFTPAKMGATKRERED [E20R]	2.48
YQRVLPLPIFTPAKMGATKCERED [E20C]	1.87
YQRVLPLPIFTPAKMGATKWERED [E20W]	2.2
YQRVLPLPIFTPAKMGATKQERED [E20Q]	1.73
YQRVLPLPIFTPAKMGATKYERED [E20Y]	2.67
YQRVLPLPIFTPAKMGATKLERED [E20L]	2.13
YQRVLPLPIFTPAKMGATKIERED [E20I]	2.04
YQRVLPLPIFTPAKMGATKSERED [E20S]	2.11
YQRVLPLPIFTPAKMGATKKERED [E20K]	1.81
YQRVLPLPIFTPAKMGATKAERED [E20A]	1.94
YQRVLPLPIFTPAKMGATKFERED [E20F]	1.72
YQRVLPLPIFTPAKMGATKDERED [E20D]	2.02
YQRVLPLPIFTPAKMGATKPERED [E20P]	1.92
